Data as given in patent US20110039770A1, “INHIBITORS OF PROTEIN KINASE C ISOFORMS AND USES THEREOF” (PHARMAGAP INC., priority 2005, published 2011).
Where a SMILES comes first, the peptide text is derived from it. [ ]: non-standard residue; d: D form.

Assays:
PKC-βI = PKC-βI (Homo sapiens, UniProt P05771); test: ELISA-based competitive binding assay with purified PKC isoform; parameters: key to Affinity for PKC isoform βI: —: no detectable affinity; Low to very low affinity at 10X or 20X or both PRE concentrations in at least one cell line in the cell extract assay; Low affinity in purified isoform assay.; Moderate affinity at 10X or 20X or both PRE concentrations in at least one cell line in the cell extract assay.; High affinity at 10X or 20X or both PRE concentrations in at least one cell line in the cell extract assay; High affinity in purified isoform assay; settings: for Affinity for PKC isoform βI: Purified isoform
Description: (§1) Peptides PRE 1, 2, 3, 4, 5, 6, 7, 8, 9, 10, 11, 12 and 13 (see Table 3) were tested for their ability to interfere with binding of PKC isoform-specific antibodies to their target PKC isoforms using a competitive binding assay and purified PKC isoforms.
(§2) Procedure: Competitive binding was assessed using a 96 well plate ELISA-based assay as described below.
(§3) Greiner 96 well ELISA plates were coated with the appropriate PKC isoform diluted in PBSN (PBS with Calcium/Magnesium+0.05% Sodium azide w/w). 50 μL/well at 250 ng/mL was used. Control wells contained PBSN only. Plates were incubated overnight at 4° C.
(§4) The plates were washed 3 times with 200 μL of dH2O per well, then 100 μL of blocking solution was added per well and the plate incubated for 1 h at 37° C. The washing steps with dH2O were repeated and 50 μL of the appropriate PRE solution (PRE stock solution [20 mM in DMSO] diluted in PBSN) was added and the plate incubated for 1 h at room temperature.
(§5) After incubation, 5 μL of 1.1:400 anti-PKC (isoform specific antibody) was added per well (to provide a final concentration of 1:4000). For PKC-epsilon, 1.1:800 dilution was used and for PKC-zeta a 1.1:100 dilution was used due to high and low binding affinity, respectively. The plates were then incubated 1 h at room temperature, followed by washing with dH2O as described above.
(§6) 50 μL of 1:1000 dilution of Alkaline Phosphatase (AP) conjugated antibody (anti-rabbit for all except zeta, which was anti-goat) was then added and the plate incubated for 1 h at room temperature. Washing with dH2O was then repeated. Finally, 100 μL of pNPP solution in pNPP buffer (2 mM MgCl2, 100 mM Sodium bicarbonate in water, pH 9.8) was added to all wells and incubated for 8 minutes for α, βI, βII ε, and ζ, or for 15-20 mins for δ (until sufficient coloration is observed). The reaction was stopped by addition of Stop solution (2N NaOH) and the absorbance at 405 nm was read on a Galaxy Plate reader.
(§7) Controls were PKC without PRE; blank controls, and controls containing the final concentrations of DMSO used for solubilizing the PREs. The non-specific binding capacity related to DMSO was also measured.
(§8) The antibodies used were as follows: anti-PKC α (Cat. No. SC-208); anti-PKC βI (Cat. No. SC-209); anti-PKC βII (Cat. No. SC-210); anti-PKC δ (Cat. No. SC-213); anti-PKC ε (Cat. No. SC-214); anti-PKC ζ (Cat. No. SC-216-G) (all from Santa Cruz Biotechnology, Inc.). The AP-conjugated antibodies were obtained from Jackson Immuno Research Laboratories (West Grove, Pa.).
(§9) Calculations: The OD values measured at 405 nm represent the free PKC coated per well.
(§10) OD405 PKC alone−Blank OD405 of each sample=OD405 coated isoform
(§11) (OD405 of sample X/OD405 coated isoform)×100=% n that represents the percentage of X binding compared to control.
(§12) 100-% n measures the relative binding capacity of X towards the tested isoform.
(§13) The apparent binding capacity of the DMSO samples was then subtracted from X binding capacity.
(§14) All measurements were made in triplicate and the values in the table represent the averaged calculated binding capacity values after subtraction of the DMSO apparent binding capacity (averaged from 12 values, respectively 10.80, 11.20 and 16.40 corresponding to the concentrations of DMSO used to dilute the […] at 200, 100 and 50 μM respectively). The results allow for quantitative comparison of the binding capacity of each PRE towards an individual isoform within each table, but not among isoforms due to differences in sensitivity of the specific antibodies toward the secondary antibody. This applies particularly to PKC-delta. As noted above, the colour development duration was increased 2-3 times and, as a result, the OD405 measurements may be overestimated for this isoform.

PKC-βII = PKC-βII (Homo sapiens, UniProt P05771); test: as above; parameters: key to Affinity for PKC isoform βII: —: no detectable affinity; Low to very low affinity at 10X or 20X or both PRE concentrations in at least one cell line in the cell extract assay; Low affinity in purified isoform assay.; Moderate affinity at 10X or 20X or both PRE concentrations in at least one cell line in the cell extract assay.; High affinity at 10X or 20X or both PRE concentrations in at least one cell line in the cell extract assay; High affinity in purified isoform assay; settings: for Affinity for PKC isoform βII: Purified isoform
Description: as §1, §2, §3, §4, §5, §6, §7, §8, §9, §10, §11, §12, §13, §14

[1] = PRE 50 μM, purified PKC-βII, read-out: calculated binding capacity (100-% n, DMSO apparent binding subtracted)
[2] = PRE 100 μM, purified PKC-βII, read-out: calculated binding capacity (100-% n, DMSO apparent binding subtracted)

Chain of PKC-βI (P05771 whole entry, canonical isoform): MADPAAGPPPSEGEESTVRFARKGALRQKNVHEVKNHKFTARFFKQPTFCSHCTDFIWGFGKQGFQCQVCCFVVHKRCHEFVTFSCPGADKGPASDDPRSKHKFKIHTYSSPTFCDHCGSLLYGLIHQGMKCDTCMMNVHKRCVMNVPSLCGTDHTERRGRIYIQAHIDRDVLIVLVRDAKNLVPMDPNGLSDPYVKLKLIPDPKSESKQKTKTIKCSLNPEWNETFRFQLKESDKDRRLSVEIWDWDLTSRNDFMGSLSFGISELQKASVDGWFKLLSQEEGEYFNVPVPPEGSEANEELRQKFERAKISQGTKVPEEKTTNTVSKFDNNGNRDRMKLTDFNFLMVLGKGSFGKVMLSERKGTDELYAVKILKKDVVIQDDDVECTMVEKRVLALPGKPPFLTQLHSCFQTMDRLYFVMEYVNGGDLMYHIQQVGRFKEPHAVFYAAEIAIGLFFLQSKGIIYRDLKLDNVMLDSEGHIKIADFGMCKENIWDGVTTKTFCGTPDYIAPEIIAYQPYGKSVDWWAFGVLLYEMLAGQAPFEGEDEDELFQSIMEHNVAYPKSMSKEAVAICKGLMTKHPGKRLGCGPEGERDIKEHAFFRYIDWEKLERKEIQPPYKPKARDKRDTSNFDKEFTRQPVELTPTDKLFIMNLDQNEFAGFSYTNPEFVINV
Chain of PKC-βII (P05771 1-673 isoform P05771-2): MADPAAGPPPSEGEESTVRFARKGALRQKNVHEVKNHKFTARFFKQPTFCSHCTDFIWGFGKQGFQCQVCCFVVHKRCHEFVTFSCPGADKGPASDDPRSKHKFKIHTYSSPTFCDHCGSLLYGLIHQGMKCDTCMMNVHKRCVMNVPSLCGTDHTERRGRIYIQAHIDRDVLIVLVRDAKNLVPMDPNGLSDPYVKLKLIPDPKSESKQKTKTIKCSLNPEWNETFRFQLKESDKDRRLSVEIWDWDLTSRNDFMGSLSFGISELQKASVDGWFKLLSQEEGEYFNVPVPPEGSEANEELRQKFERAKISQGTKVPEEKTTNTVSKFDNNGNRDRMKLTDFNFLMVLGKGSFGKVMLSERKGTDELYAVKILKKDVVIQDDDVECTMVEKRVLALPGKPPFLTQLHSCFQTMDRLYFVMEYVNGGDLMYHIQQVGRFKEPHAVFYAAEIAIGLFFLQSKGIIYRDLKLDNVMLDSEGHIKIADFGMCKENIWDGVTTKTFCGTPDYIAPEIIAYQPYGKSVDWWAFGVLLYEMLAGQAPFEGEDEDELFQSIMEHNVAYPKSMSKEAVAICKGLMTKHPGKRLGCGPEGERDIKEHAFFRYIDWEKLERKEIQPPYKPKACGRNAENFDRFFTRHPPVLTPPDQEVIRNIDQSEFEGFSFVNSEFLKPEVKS

Affinity for PKC isoform βI (PKC-βI)	Affinity for PKC isoform βII (PKC-βII)	Molecule	other results
—	—	Ac-KDAQNLI-NH2 [PRE 12]	
—	—	Ac-RDAQNLI-NH2 [PRE 13]	
—	—	Ac-RDAQNLIGISI-NH2 [PRE 11]	
L	H	Ac-isigilqnadk-NH2 (Ac-[dI][dS][dI]G[dI][dL][dQ][dN][dA][dD][dK]-NH2; SMILES CC[C@@H](C)[C@@H](NC(C)=O)C(=O)N[C@H](CO)C(=O)N[C@@H](C(=O)NCC(=O)N[C@@H](C(=O)N[C@H](CC(C)C)C(=O)N[C@H](CCC(N)=O)C(=O)N[C@H](CC(N)=O)C(=O)N[C@H](C)C(=O)N[C@H](CC(=O)O)C(=O)N[C@H](CCCCN)C(N)=O)[C@H](C)CC)[C@H](C)CC) [PRE 9]	calculated binding capacity (100-% n, DMSO apparent binding subtracted) (PKC-βI; PRE 50 μM, purified PKC-βI): 11.53%; calculated binding capacity (100-% n, DMSO apparent binding subtracted) (PKC-βI; PRE 100 μM, purified PKC-βI): 8.82%; calculated binding capacity (100-% n, DMSO apparent binding subtracted) (PKC-βI; PRE 200 μM, purified PKC-βI): 5.72%; calculated binding capacity (100-% n, DMSO apparent binding subtracted) (PKC-βII; PRE 50 μM, purified PKC-βII): 8.14%; calculated binding capacity (100-% n, DMSO apparent binding subtracted) (PKC-βII; PRE 100 μM, purified PKC-βII): 0.3%

Continued, molecule first:

Molecule	Affinity for PKC isoform βI (PKC-βI)	Affinity for PKC isoform βII (PKC-βII)	other results
CC[C@H](C)[C@H](NC(=O)[C@H](CO)NC(=O)[C@@H](NC(=O)CNC(=O)[C@@H](NC(=O)[C@H](CC(C)C)NC(=O)[C@H](CC(N)=O)NC(=O)[C@H](CCC(N)=O)NC(=O)[C@H](C)NC(=O)[C@H](CC(=O)O)NC(=O)CNC(=O)CNC(=O)[C@H](CCCCN)NC(=O)[C@@H](NC(=O)[C@H](CCC(=O)O)NC(=O)[C@H](CCC(N)=O)NC(=O)[C@@H](NC(=O)CNC(=O)[C@H](CCCCN)NC(=O)[C@H](C)NC(C)=O)[C@@H](C)CC)C(C)C)[C@@H](C)CC)[C@@H](C)CC)C(N)=O [PRE 3] (Ac-AKGIQEVKGGDAQNLIGISI-NH2)	H	—	inhibition at 50 µM (PKC-βII; [1]): 0%; inhibition at 100 µM (PKC-βII; [2]): 0%
CC[C@H](C)[C@H](NC(=O)[C@H](CO)NC(=O)[C@@H](NC(=O)CNC(=O)[C@@H](NC(=O)[C@H](CC(C)C)NC(=O)[C@H](CC(N)=O)NC(=O)[C@H](CCC(N)=O)NC(=O)[C@H](C)NC(=O)[C@H](CC(=O)O)NC(=O)[C@H](CCCCN)NC(C)=O)[C@@H](C)CC)[C@@H](C)CC)C(N)=O [PRE 4, Ac-KDAQNLIGISI-NH2] (Ac-KDAQNLIGISI-NH2)	L	L	
CC[C@H](C)[C@H](NC(=O)[C@H](CO)NC(=O)[C@@H](NC(=O)CNC(=O)[C@@H](NC(=O)[C@H](CC(C)C)NC(=O)[C@H](CC(N)=O)NC(=O)[C@H](CCC(N)=O)NC(=O)[C@H](C)NC(=O)[C@H](CC(=O)O)NC(=O)[C@H](CCCCN)NC(=O)CNC(=O)CNC(=O)[C@H](CCCCN)NC(=O)[C@@H](NC(=O)[C@H](CCC(=O)O)NC(=O)[C@H](CCC(N)=O)NC(=O)[C@@H](NC(=O)CNC(=O)[C@H](CCCCN)NC(=O)[C@H](C)NC(C)=O)[C@@H](C)CC)C(C)C)[C@@H](C)CC)[C@@H](C)CC)C(N)=O [PRE 5] (Ac-AKGIQEVKGGKDAQNLIGISI-NH2)	—	—	inhibition at 50 µM (PKC-βI; PRE 50 μM, purified PKC-βI, read-out: calculated binding capacity (100-% n, DMSO apparent binding subtracted)): 0%; inhibition at 100 µM (PKC-βI; PRE 100 μM, purified PKC-βI, read-out: calculated binding capacity (100-% n, DMSO apparent binding subtracted)): 0%; inhibition at 200 µM (PKC-βI; PRE 200 μM, purified PKC-βI, read-out: calculated binding capacity (100-% n, DMSO apparent binding subtracted)): 0%; inhibition at 50 µM (PKC-βII; [1]): 0%; inhibition at 100 µM (PKC-βII; [2]): 0%; inhibition at 200 µM (PKC-βII; PRE 200 μM, purified PKC-βII, read-out: calculated binding capacity (100-% n, DMSO apparent binding subtracted)): 0%
Ac-ISIGILNQADK-NH2 [PRE 10]	—	L	
Ac-ISIGILQNADK-NH2 (not fully specified; printed as Ac-ISIGILQNADK-NH2) [PRE 7]	—	—	calculated binding capacity (100-% n, DMSO apparent binding subtracted) (PKC-βI; PRE 50 μM, purified PKC-βI): 2.10%
Ac-KDANQLIGISI-NH2 [PRE 6]	L	—	
ILEDKGGDAQNLIGISI [PRE 8]	—	—	
RRKKGGKDFVVKR [PRE 1]	H	—	
